3 molecules from patent US20220289850 (published 2022) can be followed below.

Where only a bound is given, the exact number is not on record here.

One test addresses T1, human integrin avb8 (human).
T1 chain 1: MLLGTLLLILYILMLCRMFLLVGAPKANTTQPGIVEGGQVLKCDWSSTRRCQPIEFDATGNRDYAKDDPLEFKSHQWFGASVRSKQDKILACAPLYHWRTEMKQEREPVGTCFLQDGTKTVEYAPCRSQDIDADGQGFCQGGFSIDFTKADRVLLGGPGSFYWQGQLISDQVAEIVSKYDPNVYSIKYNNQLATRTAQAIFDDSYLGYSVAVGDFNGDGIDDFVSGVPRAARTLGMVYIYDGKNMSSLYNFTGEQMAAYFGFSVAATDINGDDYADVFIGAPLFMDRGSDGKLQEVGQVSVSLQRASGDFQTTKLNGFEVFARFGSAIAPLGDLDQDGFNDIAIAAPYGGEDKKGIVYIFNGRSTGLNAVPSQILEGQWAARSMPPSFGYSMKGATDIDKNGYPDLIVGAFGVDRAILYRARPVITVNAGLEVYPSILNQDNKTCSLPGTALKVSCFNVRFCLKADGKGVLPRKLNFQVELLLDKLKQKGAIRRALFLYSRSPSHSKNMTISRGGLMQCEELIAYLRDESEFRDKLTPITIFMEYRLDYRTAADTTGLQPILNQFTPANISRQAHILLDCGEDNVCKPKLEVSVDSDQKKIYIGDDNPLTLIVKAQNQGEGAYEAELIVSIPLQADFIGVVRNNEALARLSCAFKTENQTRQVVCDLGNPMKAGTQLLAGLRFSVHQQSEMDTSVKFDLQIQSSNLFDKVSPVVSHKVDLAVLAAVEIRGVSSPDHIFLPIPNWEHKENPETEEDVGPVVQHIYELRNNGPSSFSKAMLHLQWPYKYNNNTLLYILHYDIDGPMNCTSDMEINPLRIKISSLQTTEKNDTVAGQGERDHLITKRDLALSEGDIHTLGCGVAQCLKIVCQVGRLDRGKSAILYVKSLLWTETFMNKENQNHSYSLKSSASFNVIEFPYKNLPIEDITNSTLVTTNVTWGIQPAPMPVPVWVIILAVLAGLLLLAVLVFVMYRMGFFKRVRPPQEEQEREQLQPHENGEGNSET
T1 chain 2: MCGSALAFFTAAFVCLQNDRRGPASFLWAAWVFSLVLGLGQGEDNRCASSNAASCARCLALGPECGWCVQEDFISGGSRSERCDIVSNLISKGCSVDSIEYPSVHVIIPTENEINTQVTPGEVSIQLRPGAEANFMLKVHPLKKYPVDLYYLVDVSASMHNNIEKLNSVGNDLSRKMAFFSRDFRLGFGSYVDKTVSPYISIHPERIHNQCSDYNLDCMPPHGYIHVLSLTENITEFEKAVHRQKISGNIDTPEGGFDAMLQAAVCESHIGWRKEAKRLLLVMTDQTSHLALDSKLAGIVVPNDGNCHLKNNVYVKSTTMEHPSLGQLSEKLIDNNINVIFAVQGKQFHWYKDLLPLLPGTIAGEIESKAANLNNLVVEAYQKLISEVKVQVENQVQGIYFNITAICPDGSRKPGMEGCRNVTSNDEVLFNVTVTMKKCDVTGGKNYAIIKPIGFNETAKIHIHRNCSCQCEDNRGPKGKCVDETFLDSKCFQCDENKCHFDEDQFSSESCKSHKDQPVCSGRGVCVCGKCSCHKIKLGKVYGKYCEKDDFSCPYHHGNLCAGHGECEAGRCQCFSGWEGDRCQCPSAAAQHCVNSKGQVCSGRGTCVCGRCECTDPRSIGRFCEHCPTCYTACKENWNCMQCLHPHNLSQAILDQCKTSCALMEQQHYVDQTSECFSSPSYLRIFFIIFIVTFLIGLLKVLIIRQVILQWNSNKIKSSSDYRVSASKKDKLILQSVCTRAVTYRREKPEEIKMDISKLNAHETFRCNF
Nature of the test: SPR.

Another test has as its target C1q (human, UniProt P02745). The experiment in a line: other, up to 30 ug/mL.

C1q, sequence (P02745 23-245, chain 1 of 3): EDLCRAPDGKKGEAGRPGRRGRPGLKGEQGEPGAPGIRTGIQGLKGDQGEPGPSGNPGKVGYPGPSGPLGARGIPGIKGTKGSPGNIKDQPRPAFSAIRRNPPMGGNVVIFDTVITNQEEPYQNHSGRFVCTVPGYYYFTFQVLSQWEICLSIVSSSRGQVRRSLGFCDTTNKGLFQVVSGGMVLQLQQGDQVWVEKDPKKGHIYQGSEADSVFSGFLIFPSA
C1q, sequence (P02746 28-253, chain 2 of 3, further chain): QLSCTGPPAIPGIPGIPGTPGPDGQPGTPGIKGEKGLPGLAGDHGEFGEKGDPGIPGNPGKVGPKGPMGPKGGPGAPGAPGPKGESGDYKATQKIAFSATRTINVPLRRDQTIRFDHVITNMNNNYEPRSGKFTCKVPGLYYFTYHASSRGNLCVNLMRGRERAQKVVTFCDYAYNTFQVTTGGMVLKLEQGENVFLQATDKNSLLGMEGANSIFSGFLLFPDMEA
C1q, sequence (P02747 29-245, chain 3 of 3, further chain): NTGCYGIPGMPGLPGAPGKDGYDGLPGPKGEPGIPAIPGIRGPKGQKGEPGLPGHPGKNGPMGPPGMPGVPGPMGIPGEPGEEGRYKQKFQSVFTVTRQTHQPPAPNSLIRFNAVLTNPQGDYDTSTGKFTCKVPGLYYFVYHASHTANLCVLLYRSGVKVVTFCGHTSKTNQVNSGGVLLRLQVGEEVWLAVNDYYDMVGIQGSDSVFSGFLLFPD

B1: Mouse hybridoma ADWA-11 Fab (antibody, V domains shown)
VH: EVQLQQSGAELVRPGAFVKLSCKASGFNIKDYYMNWVLQRPEQGLEWIGWIDPDNGNTIYDPKFQGKASITADTSSNTAYLQLSSLTSEDTAVYYCARRLLMDYWGQGTSVTVSS
VL: DIVMTQAAPSVPVTPGESVSISCRSTKSLLHFNGNTYLFWFLQRPGQSPQRLIYYMSNLASGVPDRFSGRGSGTDFTLRISRVEAEDVGVYYCMQSLEYPFTFGTGTKLEIK
B1 registered a dissociation constant Kd with human integrin avb8 of 0.536 nM.

B2: ADWA11 VH05/VK01 (VH05-2_VK01) Fab (antibody, V domains shown)
VH: EVQLVESGGGLVQPGGSLRLSCAASGFNIKDYYMNWVRQAPGKGLEWVGWIDPDNGNTIYDPKFQGRFTISADTSKNSAYLQMNSLRAEDTAVYYCARRLLMDYWGQGTLVTVSS
VL: DIQMTQSPSSLSASVGDRVTITCRSTKSLLHFNGNTYLFWYQQKPGKAPKRLIYYMSNLASGVPSRFSGSGSGTDFTLTISSLQPEDFATYYCMQSLEYPFTFGQGTKVEIK
The molecule B2 showed a Kd with human integrin avb8 of less than 0.1 nM.

B3: ADWA11 2.4 IgG (antibody)
chain 1: EVQLVESGGGLVQPGGSLRLSCAASGFNIKDYYMNWVRQAPGKGLEWVGWIDPDQGNTIYEPKFQGRFTISADTSKNSAYLQMNSLRAEDTAVYYCARRLLMDYWGQGTLVTVSSASTKGPSVFPLAPSSKSTSGGTAALGCLVKDYFPEPVTVSWNSGALTSGVHTFPAVLQSSGLYSLSSVVTVPSSSLGTQTYICNVNHKPSNTKVDKKVEPKSCDKTHTCPPCPAPEAAGAPSVFLFPPKPKDTLMISRTPEVTCVVVDVSHEDPEVKFNWYVDGVEVHNAKTKPREEQYNSTYRVVSVLTVLHQDWLNGKEYKCKVSNKALPAPIEKTISKAKGQPREPQVYTLPPSREEMTKNQVSLTCLVKGFYPSDIAVEWESNGQPENNYKTTPPVLDSDGSFFLYSKLTVDKSRWQQGNVFSCSVMHEALHNHYTQKSLSLSPGK
chain 2: DIQMTQSPSSLSASVGDRVTITCRSTKSLSHFNGNTYLFWYQQKPGKAPKRLIYYMSSLASGVPSRFSGSGSGTDFTLTISSLQPEDFATYYCQQSLEYPFTFGGGTKVEIKRTVAAPSVFIFPPSDEQLKSGTASVVCLLNNFYPREAKVQWKVDNALQSGNSQESVTEQDSKDSTYSLSSTLTLSKADYEKHKVYACEVTHQGLSSPVTKSFNRGEC
With B3, the binding result with C1q is reported as “no binding”.

As a reminder, the Kd is the concentration at which binding is half-saturated. The low end stands for a tighter complex, the high end for a looser complex.
